Test results from the DeepSol protein solubility set.

test: soluble on expression in E. coli; label from the status in PepcDB or PDB records

Sequence | soluble on expression in E. coli
MSLFIRDNHLHTHHSYDSDANFTDYLTHFDGEIVTTEHYDLSNPYTKQDDVPDYESYSHEVEKLNLKYGNRIKRGIEIGYYQPRESDILDFLDGKDYDLKLLSVHHNGVNDYLDDEVAEMDKANIIQEYLDKLEYAVGRVDADVLAHFDYGFRLFDVTVDELKAYENQLKRIFKKMIANDLAFELNSKSMYLYHHEGLYRYVLALVKDLGCRKYSIGSDGHKLEHFRLNFDKIQELLREFEITEDMEGHHHHHH | not soluble
MTFAPGFSGGLSPAYRLGSRRSPSPFSEEVRAEEGPGAGGFSQVFHTPCLCLGTMRWKSVLGLAVLLLASLALAQALTLDLRPYLVKVVEGKEVYEANPLAVRPGDVLEWRLVAENRAQGDLRQVALVIPIPKETYYLEGSAKPLQVGGTIVPPEFSFDGGKTFGRPPLKKRIRVVENGKEVEKEVEVKPEEYTHARWVIPVLSKGDKVMVSLRTIVR | soluble
MAPFSPASSDVLVIGGGPSGTALSAELAARGLDVQQLAPHPPRPFPATYGAWLGDLPTWARGCAEQVWTDVRAYTGPQPTSLGQPYALLDNAALLRTLRGLADWTWVEGAALHAERSGAGWTVYGAGGERWQTRLVVDASGHGALVSPVRFPGGAALQTAYGVVARFRRPPVTPGSMVWMDYRTPAPELKRGEATFLYAMHLGGDRYFVEETSLIARPAPTRAELRRRLLARLSAQGTPPHATESEEWVAFPMNAQAPAPGGVLAYGAAAGRVHPVSGFQVAGALSDAPGVATAIATALCQGKDAAAAGWAALWSPERRAAREVHLLGVGALLGLERAELPHFFGTFFGLPREQWARFLHPDTDAGTLARTMLRVFAQTGGRVRLPLARAALAQPAASGRALAAAAGLKILEHHHHHH | not soluble
MGSDKIHHHHHHAADPVVVPANMEPLTIEGNRFVTLCIMIRTTPWEVSRDVKLHPRDEVDWHTLEGVRALREAFATNNPNGRLTWGFTMNALEDGRKNYREIRDYVVECQKKYGDEVTYFPGYFPAMYLPRERVNREMSEAIEIISKMVGNGYRPQSIMGGFLSADNLRYLAEKENIHVAHAVIWSQHNIDGGGADGSPSYPFYPSTEHFCKPAQGKSDFIDCVNLDGWTMDFICARRSGQTGHGIDGYNSRRGVGPIETYKGWGLDLGHREVMHTEAIHFDKGLELNGFGWVANIWEAQMVHEFGKDLICDAMKMWVTGTKERWPDTHFVTFGEFGELWRKQYKSNDDWNYRFVERGSGLGDSYNNLEIKWFMNKEFRLALLRDWHTKNSPAYVIDFTRYDLQAHEPADPSPEKPAKDWSLINKINQKALRPQDKPVLIDKLEKEDQDLIRKYYPELLK | not soluble
MGSDKIHHHHHHMQSKIAEAIKLGNQPVAVMRSDAKPEGAMQFKEGRWGCAISLLNMAAKGQVAVFANSTTTCSGGKVGLGFRQFELGFIEHFLSVGGVGGREGEFYKKNPELAGKFALELPKVTAKEYIIFKPLSELKADETPEGIIFLANADQISALTVLANYDRPTQDNVKVNFGAGCHQTVLFTLDQVDKDEDHCFIGLTDPSARKFIDKDILSFSMTYKRFLELEEQVEESFLTKETWLKVAERI | not soluble
MGSDKIHHHHHHMQFLYNKQAGEEFIQLQGENFNHLKVRRVKENSELNLRNLQDNFLYNYTITNLTRNSCTLKFLNKKSQNIKQSELNLALAIIDIKILEKTLPFLNELGVKKLHLVFTNFSQRNFKIDLERFEKIIISSCEQCGRNTKMDLIIHQSTQEFVQKFPNAIMVDFQGEQQSHFDEKELYFIGPEGGFNNDERLLFNRKISLKSSNILKSQTAIIAIASKILL | not soluble
GQYTFSMPSDSHVSSCSEDWVGYQRKCYFISTVKRSWTSAQNACSEHGATLAVIDSEKDMNFLKRYAGREEHWVGLKKEPGHPWKWSNGKEFNNWFNVTGSDKCVFLKNTEVSSMECEKNLYWICNKPYK | soluble
MGSDKIHHHHHHMEGRINPENWKDIFSDTLYIITDPNGVTAVIPEETAKTASSEPVKAAPADIKPTPVTTATPALPKIPSIPTPASATPNQQPAPVAAATAVLKPAGKYSNGILILMHVSYTMTPAQQEMLGKIVKAVQLDYNECGVLQVSAPVSLKEIETLKPRIVLSFGLPTDAFEPRMTKDLYSIQKHNSTIMLLADSLAKLETTVALKSNLWNAMKEMFGIK | not soluble
MFGFLRKSQPVPQPQEATSDTIATQHTSAPLSNDMMLLMAEEIPMLDSNSRVRVYEILEQYDGPTICSQEELPREIREMMDL | not soluble
MMSYALVLAGNRLITSGALGTNAAAIRGAMRADPNLLTVILPQSLERQPRESRQQLDKVMHLVEKPENDHLPLAEASSLCNQEIIARCQQLICFAFHDSHTLLQTCELAEEQHKVVTLFYFDLEHHHHHH | not soluble
MPMSSLPAAILSHMTAINNVPPPPLHSIPNLKKSKHINYGQLNALCHIRGQHSRSMSNILSAHDTFMKQYPKVFLHQKPRLPKLFKQEEQRELNEGKEESQHQQPDDSNNIAVHVQRAHGGHILYRPKRATEKFEEFLAILKKLPIHRTPYEHKTVWKFLKTIPDLTFQLNDKHLKTLSKTVFSETWLKGSTVVANDGFYVILKGLARPQTNVYKNLIEGSDSPDSFISQSFHSFIWSEEFKNSTLAEMYLPSYDSMLSKWSTFGTLEVMPQNESETQMFSVVTEDDCEILKIPAKGYAKIKEEKIKLENMQKLKLIRMCPYYEEWPTLSIYELIALLKWKKFPPGHVIVESGNIISFVGYINSGCCNIYRSIIGFVKLRSNKVKRSQKLVYMGKLKEKESFGEISVLLQVPFTCTIITKKEVEMAIIEDKDLFVA | soluble
MGSDKIHHHHHHMKKTSFIYLLLLIALGLSSCQQEKTFKVLQFNIWQEGAVVKGGFDAIADEIVRSNADFVTLSEVRNYHQTRFCDRIVEALQQRGQTYYSFYTEDSGLLSRYPITDSTTVYPLNDDRGSMYKAITHIGDTEVALYTAHLDYRNCAYYDARGYDGNTWDEEPPVTNLDTLLWLNEQSVRDDAIACFLKEAKKDREAGRIVILGGDFNEPSHLDWTEATKDMRDHQGLVVPWHVSVMLEKDGFKDTYREIFPNPVTHPGLTCPADCKDIALEKLVWSPKADDRDRIDFIHYAPFEGLTLTDVCIIGPKGDILRGQRETEETSDPIMTPLGIWPTDHKAVLATFHLK | not soluble
MFFRCCMKIVQIIGGLGNQMFQFAFYLALKEKYVNVKLDTSSFGAYTHNGFELDKVFHVEYLKASIRERIKLSYQGSEIWIRVLRKLLKRKKTEYVEPYLCFDENAISLSCDKYYIGYWQSYKYFTNIEAAIRGQFHFSKVLSDKNEFIKKQMQNSNSVSLHVRLGDYVNNPAYSNICTSAYYNKAINIIQSKVSEPKFFVFSDDTVWCKDHLKIPNCHIIDWNNKEESYWDMCLMTYCKHNIIANSSFSWWGAWLNTNPERIVIAPGKWINDDRVQVSDIIPSDWICVLEHHHHHH | not soluble
MDRTTGKPLVGIEHLRQSIIDILSTRIGTRVMRRDYGSRIAELIDAPVNSSFSIALYAAVAEALDKWEPRFKLKKIDFKMLGTGQVSLSFEGMYLPSGKPITMEGLLIQ | not soluble
MAHHHHHHMTRVLVNREDCSVQVKGDLITFLYATVAKDPLVVASRNVTQLLRSRKDDTAAKLVADGESYVLKFESLRDREGFIESIVRAQEAEQALSNDEWVASTICHAAVDVGVLDQEELRAIMSAAGQRGVEQAFDALETLVDRETFQLLPITEQMENDVLRQTPVLAAIFQERVVDKETKKSFWEAVVRKYFCFSRTFLEEDIQRLEGARSVATAASPPLSGSAATSSLSVINASSMCALPKGAATAMLDTDINEEDLLHLDENVEPLQQSFHGLFAAHRHLPVGSASVLPVNGAALPFPQETAEPSPVYRPRFVGFRVLHQLPSETIEKAALETLRTFWRSSVKQRRSILAKYTRISKKGGGGFIQRMCLEQADRAVQNT | not soluble
